Measurements from patent US20040248211A1, “ICAM-related protein” (priority 1992, published 2004).

Assays:
Resting PBL = assay: CD69 and CD25 upregulation after prepulse; type: cell-based, human; conditions: 24 hours
Procedure: Resting PBL isolated as described in Section I above were prepulsed on ICR-1.1 or negative control antibodies, washed and incubated on immobilizedanti-CD3 for 24 hours. The cells were then collected, labeled with monoclonal antibodies to the lymphocyte activation antigens CD69, CD25 and CD80 and examined by flow cytometry.

ICAM-R = assay: Epitope mapping by domain substitution/deletion (summary); type: binding, human
Procedure: Fusion 81 was screened by ELISA on COS cells transiently transfected with either a domain 1 deleted ICAM-R construct [Example 15.C.1] or with an ICAM-2 construct. The transfected cells were paraformaldehyde fixed on 96-well plates, and the remainder of the assay was performed as previously described, except no Tween 20 was used. The wells that were positive for domain 1 deleted ICAM-R but negative for ICAM-2, were tested on Cos cells transiently transfected with domain 1 deleted ICAM-R or domain 3 deleted ICAM-R by ELISA.
For the anti-ICAM-R monoclonal antibody binding assay, COS cells transfected with constructs encoding the ICAM-R chimeric proteins or control constructs were removed from the plates by EDTA treatment and aliquoted at 2.5×10^5 cells per well in a 96-well round bottom plate. Cells were washed 3 times with ice cold washing buffer (PBS containing 1% BSA and 0.05% sodium azide). […] The samples were analyzed on a Becton-Dickinson FACScan instrument. […]
Table 11 below is a summary of certain characteristics of ICAM-R specific monoclonal antibodies of the invention which have been specifically described in the foregoing examples. In Table 11, the abbreviation “NC” stands for “not conclusive” and the abbreviation “ND” stands for “not determined.” The antibodies marked with an asterisk in Table 11 enhanced activation at low concentrations.

ICAM-R peptides = assay: Multipin peptide ELISA; type: binding, human; conditions: hybridoma supernatant
Procedure: The first method for mapping linear epitopes recognized by the ICAM-R specific antibodies of the invention utilized the Multipin Peptide Synthesis System (Chiron Mimotopes Pty. Ltd., Victoria, Australia) which places ten amino acid peptides representing overlapping segments of the protein of interest on the surface of a series of plastic pins. A modified ELISA test is performed to determine binding of a monoclonal antibody to each peptide.
The ELISA to determine binding of the monoclonal antibodies to ICAM-R peptides was run as follows. […] The pins were transferred to plates containing ABTS substrate solution [0.5 mg/ml ABTS, 0.01% weight/volume H2O2 in substrate buffer (17.9 g/L Na2HPO4H2O, 16.8 g/L citric acid monohydrate, pH 4.0)] for 45 minutes at 20° C. with agitation and then the plates were read at 410/495 nm.
Relative reactivity with individual pins was determined after normalizing results for differences in immunoglobulin concentrations in anti-ICAM-R and control hybridoma supernatants and reactivities of positive controls between assays. Mouse IgG levels for each supernatant had been determined by antibody capture ELISA as follows. […] Antibody concentrations of culture supernatant were determined by fitting measured optical densities to the standard curve of the isotype matched control.

CEM cells = assay: Detergent resistance (cytoskeleton association) assay, CEM; type: cell-based, human
Procedure: PBL or washed CEM cell suspensions ([…]) were dispensed into Falcon 12×75 mm tubes in ice-cold PBS-5% FBS, pelleted, and resuspended in 50 μl of FITC-conjugated anti-ICAM-R monoclonal antibody 26E3D-1 or 26I10E-2 adjusted to saturating concentration in the same buffer. Antibody binding was permitted to proceed for 30 minutes on ice, afterwhich unbound antibody was removed by pelleting cells which had first been resuspended in 1 ml of […] through an underlaid cushion (0.7 ml) of neat (undiluted) FBS.
For groups stained with FITC-conjugated monoclonal antibody only, the 1 ml suspension was divided into two equal parts, each of which was separately underlaid with FBS, centrifuged, and the supernatant removed by aspiration. Cell pellets were then resuspended in 200 ul of control buffer (13 mM Tris pH 8.0, 150 mM NaCl, 2 mM MgCl2, 2 mM EGTA, 2% FBS, 2.5 ug/ml aprotinin, 1 mM PMSF, 10 mM iodoacetamide) or detergent buffer [0.5% NP-40 (v/v) (US Biochemical, Cleveland, Ohio) in control buffer] and held for 20 minutes at room temperature, or overnight at 4° C., prior to FACS analysis. For groups in which cell surface-bound monoclonal antibody was crosslinked with secondary antibodies, following the first antibody staining step, washed cell pellets were resuspended in 50 ul of FITC-goat anti-mouse IgG (Sigma) diluted 1:100 in PBS-5% FCS and incubated for 30 minutes on ice. […]

B1: ICR-1.1: anti-ICAM-R monoclonal antibody, IgG2a, domain 1, ATCC HB 11053 (antibody, V domains shown)
VH: QVQLQQSGAELAKPGASVKMSCKASGYTFTVYWMHWVKQRPGQGLEWIGYINPNTDYTEYNQRFQDKATLTADKSSSTAYMQLSSLTSEDSAVYYCARWGGNSYGLDYWGQGTSVTVSS
VL: QIVLTQSPALMSASPGEKVTMTCSASSSVSYIYWYQQKPRSSPKPWIYLTSNLASGVPARFSGSGSGASYSLTISIMEAEDAATYYCQQWKSIPLTFGAGTKLELK
upregulation of CD69 and CD25 in response to immobilized anti-CD3 after prepulse (Resting PBL): do not exhibit decreased ability to upregulate the activation antigens CD69 and CD25 | Reactive Domain (ICAM-R): 1 | reactivity with overlapping ten amino acid ICAM-R peptides (ICAM-R peptides): two overlapping peptides spanning amino acids 13-23 | greater increase in detergent resistance, crosslinked antibody (CEM cells; CEM): 2-3 fold | ICAM-R association with cytoskeleton (detergent resistance), antibody alone (CEM cells; FITC-conjugated antibody, similar in PBL): negligible
